Results on 167 variants are retold here after IntAct's records for PubMed 29039417.

The labels stand for the following.
B1: BBSome complex member BBS2 (Homo sapiens), Q9BXC9 (parent)
chain: MLLPVFTLKLRHKISPRMVAIGRYDGTHPCLAAATQTGKVFIHNPHTRNQHVSASRVFQSPLESDVSLLSINQAVSCLTAGVLNPELGYDALLVGTQTNLLAYDVYNNSDLFYREVADGANAIVLGTLGDISSPLAIIGGNCALQGFNHEGSDLFWTVTGDNVNSLALCDFDGDGKKELLVGSEDFDIRVFKEDEIVAEMTETEIVTSLCPMYGSRFGYALSNGTVGVYDKTSRYWRIKSKNHAMSIHAFDLNSDGVNELITGWSNGKVDARSDRTGEVIFKDNFSSAIAGVVEGDYRMDGHIQLICCSVDGEIRGYLPGTAEMRGNLMDTSAEQDLIRELSQKKQNLLLELRNYEENAKAELASPLNEADGHRGIIPANTRLHTTLSVSLGNETQTAHTELRISTSNDTIIRAVLIFAEGIFTGESHVVHPSIHNLSSSICIPIVPPKDVPVDLHLKAFVGYRSSTQFHVFESTRQLPRFSMYALTSLDPASEPISYVNFTIAERAQRVVVWLGQNFLLPEDTHIQNAPFQVCFTSLRNGGHLHIKIKLSGEITINTDDIDLAGDIIQSMASFFAIEDLQVEADFPVYFEELRKVLVKVDEYHSVHQKLSADMADHSNLIRSLLVGAEDARLMRDMKTMKSRYMELYDLNRDLLNGYKIRCNNHTELLGNLKAVNQAIQRAGRLRVGKPKNQVITACRDAIRSNNINTLFKIMRVGTASS
partner: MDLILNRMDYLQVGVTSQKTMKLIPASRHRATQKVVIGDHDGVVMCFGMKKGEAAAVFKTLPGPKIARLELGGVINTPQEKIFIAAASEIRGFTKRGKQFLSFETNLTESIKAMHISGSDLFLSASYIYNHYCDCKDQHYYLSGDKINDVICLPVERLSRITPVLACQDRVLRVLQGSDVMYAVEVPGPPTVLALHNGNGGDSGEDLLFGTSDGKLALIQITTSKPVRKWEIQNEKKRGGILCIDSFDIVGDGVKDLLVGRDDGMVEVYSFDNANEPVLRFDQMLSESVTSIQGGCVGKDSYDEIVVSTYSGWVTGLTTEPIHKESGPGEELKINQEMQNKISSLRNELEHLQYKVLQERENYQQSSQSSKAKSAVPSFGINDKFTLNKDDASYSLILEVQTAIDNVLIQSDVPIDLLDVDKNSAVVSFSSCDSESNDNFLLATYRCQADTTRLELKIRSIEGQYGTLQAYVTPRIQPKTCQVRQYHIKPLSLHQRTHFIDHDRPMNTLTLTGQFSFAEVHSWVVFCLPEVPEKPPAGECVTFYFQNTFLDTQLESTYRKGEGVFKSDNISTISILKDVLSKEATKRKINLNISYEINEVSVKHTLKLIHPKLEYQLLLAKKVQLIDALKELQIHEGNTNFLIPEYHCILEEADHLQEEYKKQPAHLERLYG

The variants in this assay derive from B1. Conditions: with BBS7, Q8IWZ6-2.
Consider P491K, for which the “effect of a mutation on the interaction” value is on record as “with no effect”. With P491E, the “effect of a mutation on the interaction” value was “with no effect”.

For P491A, the “effect of a mutation on the interaction” value is given as “with no effect”. The entry for S474E is “with no effect”; for S474A it is “with no effect”; for S474K it is “with no effect”.

For the variant V471A, the “effect of a mutation on the interaction” value was “with no effect”. The entry for V471E is “with no effect”; for V471K it is “with no effect”. The entry for F469A is “with no effect”; for F469K it is “with no effect”; for F469S it is “disrupting interaction strength”.

On to F469E, for which the “effect of a mutation on the interaction” value is given as “with no effect”. Turning to F469M, the “effect of a mutation on the interaction” value is “disrupting interaction strength”. In the case of S493A it was “with no effect”; in that of S493K, “with no effect”; in that of S493N, “disrupting interaction strength”. The entry for S493E is “with no effect”. For V499R, the “effect of a mutation on the interaction” value is reported as “disrupting interaction strength”.

V499K: the “effect of a mutation on the interaction” value is “disrupting interaction strength”. In the case of V499A it was “with no effect”; in that of V499E, “disrupting interaction strength”; in that of P479K, “with no effect”.

In the case of P479E, the “effect of a mutation on the interaction” value is “disrupting interaction strength”. In the case of P479A it was “disrupting interaction strength”; in that of V461E, “with no effect”. In the case of V461K it was “with no effect”; in that of V461A, “disrupting interaction strength”.

V461M: the “effect of a mutation on the interaction” value is “disrupting interaction strength”. The entry for G462K is “with no effect”. In the case of G462A, the “effect of a mutation on the interaction” value is listed as “with no effect”.

As for G462E, the “effect of a mutation on the interaction” value is listed as “with no effect”.

Turning to P495A, the “effect of a mutation on the interaction” value is on record as “with no effect”.

Consider P495K, for which the “effect of a mutation on the interaction” value is given as “with no effect”. In the case of P495E it was “with no effect”. The entry for R480E is “with no effect”; for R480K it is “with no effect”. Turning to R480A, the “effect of a mutation on the interaction” value was “with no effect”. In the case of A485S it was “disrupting interaction strength”; in that of A485E, “with no effect”; in that of A485K, “with no effect”.

As to L486K, the “effect of a mutation on the interaction” value is “with no effect”.

On to L486A, for which the “effect of a mutation on the interaction” value was “with no effect”. In the case of L486E it was “with no effect”. For the variant Q468K, the “effect of a mutation on the interaction” value is “with no effect”.

On to Q468E, for which the “effect of a mutation on the interaction” value is reported as “with no effect”.

As to Q468A, the “effect of a mutation on the interaction” value was “with no effect”.

As to Q468L, the “effect of a mutation on the interaction” value is on record as “disrupting interaction strength”. In the case of T487P it was “disrupting interaction strength”; in that of T487A, “with no effect”; in that of T487E, “with no effect”. Turning to T487R, the “effect of a mutation on the interaction” value was “disrupting interaction strength”. In the case of T487K it was “with no effect”; in that of T475K, “with no effect”.

As to T475A, the “effect of a mutation on the interaction” value is recorded as “with no effect”. The entry for T475E is “with no effect”. In the case of S466A it was “with no effect”. In the case of S466E it was “disrupting interaction strength”; in that of S466K, “with no effect”. As for A459E, the “effect of a mutation on the interaction” value is reported as “with no effect”. In the case of A459K it was “disrupting interaction strength”. The entry for F501S is “disrupting interaction strength”; for F501K it is “disrupting interaction strength”.

Consider F501E, for which the “effect of a mutation on the interaction” value was “disrupting interaction strength”.

For the variant F501A, the “effect of a mutation on the interaction” value is recorded as “with no effect”. The entry for S465K is “with no effect”; for S465E it is “with no effect”; for S465A it is “with no effect”. For the variant E505A, the “effect of a mutation on the interaction” value was “with no effect”. In the case of D454E it was “with no effect”. In the case of D454A it was “with no effect”; in that of D454K, “with no effect”; in that of S488K, “with no effect”.

Consider S488E, for which the “effect of a mutation on the interaction” value was “with no effect”. The entry for S488A is “with no effect”; for S488R it is “disrupting interaction strength”. Regarding M483E, the “effect of a mutation on the interaction” value is given as “with no effect”. For the variant M483A, the “effect of a mutation on the interaction” value is reported as “with no effect”. In the case of M483K it was “disrupting interaction strength”. Take S497E: the “effect of a mutation on the interaction” value is recorded as “with no effect”. Regarding S497A, the “effect of a mutation on the interaction” value is on record as “with no effect”. The entry for S497K is “with no effect”. Turning to Q477E, the “effect of a mutation on the interaction” value is listed as “with no effect”.

Take Q477A: the “effect of a mutation on the interaction” value was “with no effect”. In the case of Q477K it was “with no effect”; in that of N500K, “with no effect”. In the case of N500A it was “with no effect”. The entry for N500E is “with no effect”.

Consider I496K, for which the “effect of a mutation on the interaction” value is listed as “with no effect”.

Turning to I496A, the “effect of a mutation on the interaction” value is given as “with no effect”. The entry for I496E is “with no effect”; for Y498E it is “with no effect”. In the case of Y498A it was “with no effect”; in that of Y498K, “with no effect”.

With F472K, the “effect of a mutation on the interaction” value is on record as “with no effect”. On to F472E, for which the “effect of a mutation on the interaction” value was “with no effect”. The entry for F472L is “disrupting interaction strength”. In the case of F472A it was “disrupting interaction strength”; in that of S482A, “with no effect”. The entry for S482K is “with no effect”; for S482E it is “disrupting interaction strength”.

With T467K, the “effect of a mutation on the interaction” value was “with no effect”. The entry for T467A is “with no effect”; for T467E it is “with no effect”; for V453A it is “with no effect”. As to V453K, the “effect of a mutation on the interaction” value was “disrupting interaction strength”.

Take V453E: the “effect of a mutation on the interaction” value is “with no effect”. With E473K, the “effect of a mutation on the interaction” value is on record as “with no effect”. The entry for E473A is “with no effect”; for Y463E it is “with no effect”. The entry for Y463K is “with no effect”; for Y463A it is “disrupting interaction strength”; for A492K it is “with no effect”. As to A492E, the “effect of a mutation on the interaction” value is reported as “with no effect”.

For L478E, the “effect of a mutation on the interaction” value is given as “with no effect”. Turning to L478A, the “effect of a mutation on the interaction” value is “disrupting interaction strength”. The entry for L478K is “disrupting interaction strength”.

For Y484K, the “effect of a mutation on the interaction” value is on record as “with no effect”. In the case of Y484S it was “disrupting interaction strength”; in that of Y484E, “with no effect”; in that of Y484Q, “disrupting interaction strength”.

For Y484A, the “effect of a mutation on the interaction” value was “disrupting interaction strength”.

As for E494K, the “effect of a mutation on the interaction” value is listed as “with no effect”. In the case of E494A it was “with no effect”. The entry for F481E is “disrupting interaction strength”; for F481A it is “with no effect”; for F481K it is “disrupting interaction strength”.

Consider A504K, for which the “effect of a mutation on the interaction” value is listed as “with no effect”.

As for A504S, the “effect of a mutation on the interaction” value is reported as “disrupting interaction strength”. As to A504E, the “effect of a mutation on the interaction” value was “with no effect”.

As for L489K, the “effect of a mutation on the interaction” value is given as “with no effect”. The entry for L489A is “with no effect”.

For L489E, the “effect of a mutation on the interaction” value is recorded as “with no effect”.

Regarding F460K, the “effect of a mutation on the interaction” value is recorded as “with no effect”. As to F460E, the “effect of a mutation on the interaction” value is recorded as “with no effect”. On to F460A, for which the “effect of a mutation on the interaction” value is “with no effect”. In the case of L457E it was “disrupting interaction strength”; in that of L457A, “with no effect”. The entry for L457C is “disrupting interaction strength”; for L457K it is “disrupting interaction strength”. In the case of R464A, the “effect of a mutation on the interaction” value is “with no effect”. The entry for R464T is “disrupting interaction strength”; for R464K it is “with no effect”; for R464E it is “with no effect”. The entry for H456K is “with no effect”; for H456A it is “with no effect”; for H456E it is “with no effect”.

Turning to I503A, the “effect of a mutation on the interaction” value is listed as “with no effect”. The entry for I503K is “disrupting interaction strength”. The entry for I503E is “with no effect”; for D490A it is “with no effect”. In the case of D490E it was “with no effect”.

For D490K, the “effect of a mutation on the interaction” value is on record as “with no effect”.

L455E: the “effect of a mutation on the interaction” value is given as “disrupting interaction strength”. In the case of L455K it was “with no effect”; in that of L455A, “with no effect”. The entry for K458E is “with no effect”; for K458A it is “with no effect”; for H470K it is “with no effect”. Take H470A: the “effect of a mutation on the interaction” value is listed as “with no effect”. The entry for H470E is “with no effect”; for R476A it is “with no effect”; for R476E it is “with no effect”. In the case of R476K it was “with no effect”; in that of T502E, “with no effect”; in that of T502K, “with no effect”. The entry for T502A is “with no effect”.
